Here are results for 2 substances from article PMC3358469.

For test [1], the target named is Dec (phage decoration protein) with a hexa-histidine tag at the C-terminus. Description: cryo-EM structure.
Test [2] addresses Dec (phage decoration protein), tagged form not told for the experiment. Kind of test: cryo-EM structure.

Dec (phage decoration protein) with a hexa-histidine tag at the C-terminus, sequence (Q8HAE6 whole entry): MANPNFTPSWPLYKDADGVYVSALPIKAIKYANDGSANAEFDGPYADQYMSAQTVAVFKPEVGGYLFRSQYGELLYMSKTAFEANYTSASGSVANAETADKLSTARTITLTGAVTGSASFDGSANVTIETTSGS
Dec (phage decoration protein), tagged form not told for the experiment, sequence (Q8HAE6 whole entry): as above

In test [1], “Dec (phage decoration protein) with a hexa-histidine tag at the C-terminus (natural protein)” yielded a stoichiometry N of 3.

For “Dec (phage decoration protein), tagged form not told for the experiment (natural protein)”, in test [2], the stoichiometry N was determined as 3.
